The data set concerns the molecule itself. Put plainly: cryo-EM, 2D class averages.

B1: Vitiosangium bGSDM, engineered with a thrombin site and cleaved by thrombin (active N-terminal pore-forming domain) (domain or fragment, Vitiosangium sp. GDMCC 1.1324)
chain: SGLCSDPAITYLKRLGYNVVRLPREGIQPLHLLGQQRGTVEYLGSLEKLITQPPSEPPAITRDQAAAGINGQKTENLSFSIGINILKSVLAQFGAGAGIEAQYNQARKVRFEFSNVLADSVEPLAVGQFLKMAEVDADNPVLKQYVLGNGRLYVITQVIKSNEFTVAAEKSGGGSIQLDVPEIQKVVGGKLKVEASVSSQSTVTYKGEKQLVFGFKCFEIGVKNGEITLFASQLVPR
B1: the stoichiometry N (in general, the number of molecules, sites or subunits per partner or assembly) lay within 48 to 54 protomers.
